Measurements: paper PMC8202325
Values joined by “and” are separate entries in the source; they are usually repeats but may differ in a detail not shown here. Equal values may be shown once.

Biological target: His::PfPLSCR (recombinant full-length Plasmodium falciparum phospholipid scramblase with an N-terminal hexa-histidine affinity tag) (P. falciparum)
Test: native gel or EMSA; blue native PAGE (NativePAGE Novex Bis-Tris, G250 additive) of eluted fractions of the main SEC peak; protein purified in 250 mM NaCl, 0.5 mM CaCl2, 1 mM TCEP, 0.1 % FC-12, 25 mM HEPES pH 7.5

His::PfPLSCR (recombinant full-length Plasmodium falciparum phospholipid scramblase with an N-terminal hexa-histidine affinity tag) (natural protein)
stoichiometry N: 2 and 4
